From article PMC6868009 (Nature Communications, 2019)

B2: TcdB2 (TcB) of the TcdB2-TccC3 cocoon (natural protein)
chain: MQNSQDFSITELSLPKGGGAITGMGEALTPTGPDGMAALSLPLPISAGRGYAPAFTLNYNSGAGNSPFGLGWDCNVMTIRRRTHFGVPHYDETDTFLGPEGEVLVVADQPRDESTLQGINLGATFTVTGYRSRLESHFSRLEYWQPKTTGKTDFWLIYSPDGQVHLLGKSPQARISNPSQTTQTAQWLLEASVSSRGEQIYYQYRAEDDTGCEADEITHHLQATAQRYLHIVYYGNRTASETLPGLDGSAPSQADWLFYLVFDYGERSNNLKTPPAFSTTGSWLCRQDRFSRYEYGFEIRTRRLCRQVLMYHHLQALDSKITEHNGPTLVSRLILNYDESAIASTLVFVRRVGHEQDGNVVTLPPLELAYQDFSPRHHAHWQPMDVLANFNAIQRWQLVDLKGEGLPGLLYQDKGAWWYRSAQRLGEIGSDAVTWEKMQPLSVIPSLQSNASLVDINGDGQLDWVITGPGLRGYHSQRPDGSWTRFTPLNALPVEYTHPRAQLADLMGAGLSDLVLIGPKSVRLYANTRDGFAKGKDVVQSGDITLPVPGADPRKLVAFSDVLGSGQAHLVEVSATKVTCWPNLGRGRFGQPITLPGFSQPATEFNPAQVYLADLDGSGPTDLIYVHTNRLDIFLNKSGNGFAEPVTLRFPEGLRFDHTCQLQMADVQGLGVASLILSVPHMSPHHWRCDLTNMKPWLLNEMNNNMGVHHTLRYRSSSQFWLDEKAAALTTGQTPVCYLPFPIHTLWQTETEDEISGNKLVTTLRYARGAWDGREREFRGFGYVEQTDSHQLAQGNAPERTPPALTKNWYATGLPVIDNALSTEYWRDDQAFAGFSPRFTTWQDNKDVPLTPEDDNSRYWFNRALKGQLLRSELYGLDDSTNKHVPYTVTEFRSQVRRLQHTDSRYPVLWSSVVESRNYHYERIASDPQCSQNITLSSDRFGQPLKQLSVQYPRRQQPAINLYPDTLPDKLLANSYDDQQRQLRLTYQQSSWHHLTNNTVRVLGLPDSTRSDIFTYGAENVPAGGLNLELLSDKNSLIADDKPREYLGQQKTAYTDGQNTTPLQTPTRQALIAFTETTVFNQSTLSAFNGSIPSDKLSTTLEQAGYQQTNYLFPRTGEDKVWVAHHGYTDYGTAAQFWRPQKQSNTQLTGKITLIWDANYCVVVQTRDAAGLTTSAKYDWRFLTPVQLTDINDNQHLITLDALGRPITLRFWGTENGKMTGYSSPEKASFSPPSDVNAAIELKKPLPVAQCQVYAPESWMPVLSQKTFNRLAEQDWQKLYNARIITEDGRICTLAYRRWVQSQKAIPQLISLLNNGPRLPPHSLTLTTDRYDHDPEQQIRQQVVFSDGFGRLLQAAARHEAGMARQRNEDGSLIINVQHTENRWAVTGRTEYDNKGQPIRTYQPYFLNDWRYVSNDSARQEKEAYADTHVYDPIGREIKVITAKGWFRRTLFTPWFTVNEDENDTAAEVKKVKM

Key:
[1] = target: B2; assay: crystal structure; conditions: both partners purified
[2] = target: Photorhabdus luminescens TcdA1 (TcA) (Photorhabdus luminescens, UniProt Q9RN43 1-2516); assay: cryo-EM structure; conditions: both partners purified

B1: TccC3 (TcC) of the TcdB2-TccC3 cocoon, without the HVR (domain or fragment)
chain: MKNIDPKLYQKTPTVSVYDNRGLIIRNIDFHRTTANGDPDTRITRHQYDIHGHLNQSIDPRLYEAKQTNNTIKPNFLWQYDLTGNPLCTESIDAGRTVTLNDIEGRPLLTVTATGVIQTRQYETSSLPGRLLSVAEQTPEEKTSRITERLIWAGNTEAEKDHNLAGQCVRHYDTAGVTRLESLSLTGTVLSQSSQLLIDTQEANWTGDNETVWQNMLADDIYTTLSTFDATGALLTQTDAKGNIQRLAYDVAGQLNGSWLTLKGQTEQVIIKSLTYSAAGQKLREEHGNDVITEYSYEPETQRLIGIKTRRPSDTKVLQDLRYEYDPVGNVISIRNDAEATRFWHNQKVMPENTYTYDSLYQLISATGREMANIGQQSHQFPSPALPSDNNTYTNYTRTYTYDRGGNLTKIQHSSPATQNNYTTNITVSNRSNRAVLSTLTEDPAQVDALFDAGGHQNTLISGQNLNWNTRGELQQVTLVKRDKGANDDREWYRYSGDGRRMLKINEQQASNNAQTQRVTYLPNLELRLTQNSTATTEDLQVITVGEAGRAQVRVLHWESGKPEDIDNNQLRYSYDNLIGSSQLELDSEGQIISEEEYYPYGGTALWAARNQTEASYKTIRYSGKERDATGLYYYGYRYYQPWIGRWLSSDPAGTIDGLNLYRMVRNNPVTLLDPDGL
B1: binds [1].

B2: binds [2].
